Data: PMC7932536

Columns and labels:
[1] = molecular target: Human amyloid beta (Aβ) 42 peptide (human) (UniProt P05067)
[2] = molecular target: Human amyloid beta (Aβ) 42 peptide (human) (UniProt P05067); remark: listed apart in the source

Chain of SAMP8 type Serpina3n (Q91WP6 21-418): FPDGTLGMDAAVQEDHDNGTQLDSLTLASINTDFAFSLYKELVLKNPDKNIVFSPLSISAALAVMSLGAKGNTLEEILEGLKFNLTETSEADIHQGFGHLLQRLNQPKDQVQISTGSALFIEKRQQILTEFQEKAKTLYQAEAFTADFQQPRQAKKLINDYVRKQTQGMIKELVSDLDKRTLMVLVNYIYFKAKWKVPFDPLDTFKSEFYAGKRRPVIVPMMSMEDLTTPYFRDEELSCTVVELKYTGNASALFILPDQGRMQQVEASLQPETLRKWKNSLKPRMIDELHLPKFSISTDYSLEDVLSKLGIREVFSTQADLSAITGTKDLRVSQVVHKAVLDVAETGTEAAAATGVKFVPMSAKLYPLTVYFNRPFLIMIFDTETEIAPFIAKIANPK

- thioflavin T fluorescence assay of Aβ 42 fibrillization (time for which oligomeric or small protofibrillar forms were kept before the plateau) [1]: 13 h
- prevalence of oligomer rich observation fields of Aβ 42 under TEM, 0 to 72 hr of preincubation (delayed fibrillization) [2]: 72 h
Substance: SAMP8 type Serpina3n (from UniProt Q91WP6 21-418) (natural protein)
